Here are results for 1 substance from publication PMC4820838.

The target of this assay is STAT3-NTD-YFP. Description: pair correlation of molecular brightness (pCOMB); pair correlation of brightness fluctuations along a 64-pixel confocal line scan from cytoplasm to nucleus of live HeLa cells; amplitude calibrated against free GFP, YFP or mCherry; cells stimulated with 10 nM oncostatin M for 15 min.

Chain of STAT3-NTD-YFP (domain or fragment) (P40763 2-770): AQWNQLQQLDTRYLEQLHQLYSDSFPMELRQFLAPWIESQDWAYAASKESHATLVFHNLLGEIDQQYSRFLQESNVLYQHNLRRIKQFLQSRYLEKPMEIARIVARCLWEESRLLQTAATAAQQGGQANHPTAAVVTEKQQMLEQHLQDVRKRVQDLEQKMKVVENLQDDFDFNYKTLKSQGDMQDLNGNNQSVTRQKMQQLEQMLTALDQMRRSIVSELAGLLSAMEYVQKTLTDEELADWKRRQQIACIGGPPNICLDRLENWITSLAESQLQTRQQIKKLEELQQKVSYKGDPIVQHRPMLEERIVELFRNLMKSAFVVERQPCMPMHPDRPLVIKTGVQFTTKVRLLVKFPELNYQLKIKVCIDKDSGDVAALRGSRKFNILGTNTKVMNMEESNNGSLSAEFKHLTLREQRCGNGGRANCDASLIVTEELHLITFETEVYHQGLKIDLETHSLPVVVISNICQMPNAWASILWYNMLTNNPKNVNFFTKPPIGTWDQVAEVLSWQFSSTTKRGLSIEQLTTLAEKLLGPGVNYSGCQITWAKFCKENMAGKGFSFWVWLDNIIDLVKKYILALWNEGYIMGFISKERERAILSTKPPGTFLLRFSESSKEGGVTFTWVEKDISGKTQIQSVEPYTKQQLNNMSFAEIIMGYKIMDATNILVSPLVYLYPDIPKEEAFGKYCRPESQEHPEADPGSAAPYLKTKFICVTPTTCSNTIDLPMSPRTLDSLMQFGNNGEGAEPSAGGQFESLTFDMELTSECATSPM

What is called stoichiometry N is the number of molecules, sites or subunits per partner or assembly. Consider STAT3-NTD-YFP (domain or fragment), for which the stoichiometry N came out at 2.
